± gives the standard deviation of the averaged measurements.
These sequences were tested on Saccharomyces cerevisiae (assay: protein stability index of tFT-peptide fusion (C-terminal peptide) (PSI (0-1 scale)); higher = more stable (slower turnover)). Settings: genetic background: wild type; temperature: 30 C.
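Further: PSI is a weighted mean of sequencing reads over stability bins, variants kept only with over 10 reads, mCherry proximal and sfGFP distal, peptide attached via GGGS linker.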

Sequence | protein stability index
SLFRVAFLYVQV | 0.5406 ± 0.0018
SLGGGGGLAWWL | 0.795 ± 0.26
SLGWGRVNVCGV | 0.666 ± 0.0031
SLHSSQYTRHSG | 0.673 ± 0.024
SLHVSSLPYALQ | 0.662 ± 0.082
SLKHRSSLRQLI | 0.519 ± 0.01
SLKIPSPLSPVL | 0.699 ± 0.028
SLLCDQSSLGQC | 0.747 ± 0.11
SLLELSPPRSPP | 0.681 ± 0.03
SLLFLRFLFSTP | 0.705 ± 0.0086
SLLLPLPLPVRL | 0.582 ± 0.0086
SLLPCAPHPRPV | 0.662 ± 0.074
SLPHHRPPHPRT | 0.752 ± 0.17
SLPKSSLFAPHL | 0.715 ± 0.023
SLPLPPPSPPHV | 0.676 ± 0.018
SLPPSPPPPSLP | 0.715 ± 0.028
SLPRPYPQKVTG | 0.621 ± 0.015
SLRLHCSRQRRP | 0.649 ± 0.048
SLRLPPPTDTDS | 0.681 ± 0.03
SLRQEFDAIFVG | 0.604 ± 0.039
SLRSGFVSHFSP | 0.689 ± 0.11
SLRSIAPLGSRC | 0.832 ± 0.19
SLSAQTISDLSM | 0.68 ± 0.049

Sequence | protein stability index
SLSDKRATKGED | 0.65 ± 0.018
SLSHPSPPRTLP | 0.697 ± 0.007
SLSIWSTSPPAA | 0.691 ± 0.0086
SLSLRPPPYPPP | 0.578 ± 0.0096
SLSPLPSPPPPP | 0.7 ± 0.0087
SLSPPPPAPRAP | 0.663 ± 0.02
SLSPTPVAPPLN | 0.678 ± 0.009
SLSRPASPPPHH | 0.674 ± 0.12
SLTLPAPPLSPC | 0.712 ± 0.11
SLTYTSVAKAEV | 0.6149 ± 0.0034
SLVVPVSAAQYV | 0.653 ± 0.028
SLVWVGGRRWPI | 0.73 ± 0.023
SMARVWLVWRWK | 0.673 ± 0.035
SMFLGLCGSIYG | 0.699 ± 0.056
SMMMIISQRKTR | 0.787 ± 0.1
SMPKMGISGVIY | 0.617 ± 0.051
SNDTRKNKKRRT | 0.797 ± 0.084
SNGYMFRRDRYV | 0.686 ± 0.028
SNLYNNQEQDHT | 0.723 ± 0.058
SNPSTNPCWKKK | 0.643 ± 0.041
SNRALHATPCPR | 0.9 ± 0.038
SNRCGRGMRVFA | 0.658 ± 0.065
SNVHSYPEIRPG | 0.681 ± 0.01

Sequence | protein stability index
SPAPLALSLRPP | 0.668 ± 0.023
SPAPPVPLHPPH | 0.714 ± 0.089
SPAPRAPRGICL | 0.706 ± 0.017
SPCPPPPPSPPS | 0.6637 ± 0.0013
SPETSSILLLSF | 0.612 ± 0.0035
SPGLQPVACPSF | 0.639 ± 0.019
SPGRPGLGGGAW | 0.776 ± 0.26
SPGRPSSPPRPR | 0.744 ± 0.029
SPGVFQQRHHTY | 0.665 ± 0.087
SPHSRAPPRFPP | 0.726 ± 0.14
SPILRFPPPCFL | 0.67 ± 0.019
SPKGHGEGGGSK | 0.6779 ± 0.00078
SPKPPPHPPPPA | 0.535 ± 0.0095
SPLASVLPHAAL | 0.707 ± 0.049
SPLFLPPPVPPP | 0.599 ± 0.039
SPLFPPIPSSLS | 0.7278 ± 0.00076
SPLGAADTRQEP | 0.687 ± 0.025
SPLLRSRPPPPI | 0.749 ± 0.016
SPLPPHPPLPLL | 0.6395 ± 0.002
SPLPPPSPRPSL | 0.681 ± 0.039
SPLPPRSPPRPA | 0.699 ± 0.01
SPLSPLPPALSL | 0.695 ± 0.046
SPLSPPPPRLSA | 0.723 ± 0.061

Sequence | protein stability index
SPPCPPPLAPPP | 0.758 ± 0.044
SPPFPRPCPFTP | 0.644 ± 0.086
SPPHPPPLLLPP | 0.655 ± 0.066
SPPHSPPWPLSL | 0.691 ± 0.052
SPPLGFAPPSRS | 0.853 ± 0.046
SPPLHTFSLPFY | 0.669 ± 0.021
SPPLLPGVLSES | 0.645 ± 0.055
SPPLPKFPPAIP | 0.689 ± 0.021
SPPLRPLSDLTP | 0.692 ± 0.085
SPPPAPPPISPS | 0.708 ± 0.15
SPPPFFSPSLPP | 0.65 ± 0.09
SPPPFPPSPSPP | 0.715 ± 0.039
SPPPGLSVILLH | 0.6 ± 0.054
SPPPHPVHPVPL | 0.611 ± 0.019
SPPPISIYPPFR | 0.668 ± 0.024
SPPPLPLPPPAP | 0.695 ± 0.013
SPPPNPRRPVPL | 0.6916 ± 0.0023
SPPPPLPPPLPP | 0.52453 ± 0.00047
SPPPPPPPPFPL | 0.672 ± 0.033
SPPPPRLPSHPS | 0.613 ± 0.14
SPPPPSCRHSPL | 0.741 ± 0.011
SPPPSPPTVLPI | 0.683 ± 0.022
SPPPSSPPPFPR | 0.639 ± 0.026

Sequence | protein stability index
SPPPTDPPQPPL | 0.7035 ± 0.0018
SPPRPPAPPLLP | 0.676 ± 0.011
SPPRPPPSPTPL | 0.771 ± 0.033
SPPRPPVLSPGH | 0.68 ± 0.085
SPPSATTLRAPS | 0.641 ± 0.037
SPPSFFRATRSN | 0.644 ± 0.096
SPPSFLSFFCAP | 0.755 ± 0.14
SPPSLPPLPPRF | 0.702 ± 0.016
SPPSPLRPPPPS | 0.7 ± 0.01
SPPSPRLPPPLL | 0.77 ± 0.046
SPPTPPLAPLSP | 0.656 ± 0.042
SPPTPPPSPPFL | 0.523 ± 0.012
SPPTPPTSICPS | 0.705 ± 0.03
SPRHAGSSAWRP | 0.674 ± 0.064
SPRPDSVLLRSP | 0.723 ± 0.025
SPRPLPLPLPTS | 0.682 ± 0.1
SPRSLLTPHPHM | 0.686 ± 0.041
SPRSSPLPSPPP | 0.766 ± 0.026
SPSFDLLFSPFD | 0.778 ± 0.01
SPSPAPPTRSPS | 0.696 ± 0.023
SPSPRLSFFLPS | 0.727 ± 0.026
SPSRVSYFFFFS | 0.641 ± 0.059
SPSSTSPAPFPL | 0.672 ± 0.14

Sequence | protein stability index
SPTLNRSLPVPS | 0.654 ± 0.045
SPTPINALRPPT | 0.695 ± 0.032
SPTPLLPLASSP | 0.695 ± 0.052
SPTPPPPAPPPP | 0.645 ± 0.044
SPTPPPPSPLAP | 0.726 ± 0.059
SPTRSPPRPLPP | 0.649 ± 0.031
SPTSLPLSMPTR | 0.724 ± 0.1
SPVGRRTLPSGF | 0.692 ± 0.023
SPWFPLPSFPLA | 0.73 ± 0.029
SQGDVLLFMFLW | 0.548 ± 0.033
SQGSCCTALDVA | 0.675 ± 0.046
SQLEPNNVQVTT | 0.68 ± 0.0069
SQLRSSTSARYV | 0.692 ± 0.14
SQPLPNRLKTRG | 0.695 ± 0.032
SQPNRESQNTFN | 0.711 ± 0.052
SQTEAGSICTLP | 0.676 ± 0.05
SRDMGYFFPKLK | 0.655 ± 0.073
SRFDAGYRGTIT | 0.68 ± 0.034
SRGMERIWEFGR | 0.612 ± 0.036
SRGNYKLIWSDT | 0.731 ± 0.093
SRHWCHDTGTLT | 0.7 ± 0.012
SRIGNADAAQGM | 0.732 ± 0.042
SRKSDTMPSYPL | 0.791 ± 0.26

Sequence | protein stability index
SRLQIRIRINEV | 0.572 ± 0.032
SRLVCSTLHWRD | 0.699 ± 0.021
SRNRYSSPPVFI | 0.644 ± 0.039
SRPISCSLPCCV | 0.646 ± 0.054
SRPLVPSPPSPV | 0.663 ± 0.02
SRPPPYAPPSPP | 0.716 ± 0.01
SRPRLPPSPCLF | 0.631 ± 0.032
SRPRPPVTPPSE | 0.648 ± 0.054
SRPSPPPRRPLG | 0.759 ± 0.067
SRRAPPPLYLPL | 0.699 ± 0.067
SRSAQAGFKVFN | 0.712 ± 0.2
SRSFVPRNSPRI | 0.6609 ± 0.0051
SRSRPSRTLPLD | 0.695 ± 0.022
SRSSASTKRNRW | 0.701 ± 0.096
SRSSRINLMRRW | 0.674 ± 0.021
SRVLLPPQTLLL | 0.573 ± 0.035
SRVVSPLFNLCL | 0.692 ± 0.018
SRVWACCGVIGV | 0.667 ± 0.067
SRWHVCGWYKRR | 0.682 ± 0.016
SRWWSRPRYRDG | 0.752 ± 0.017
SRYGKVIRKKHE | 0.756 ± 0.021
SSDLTKKCNRLR | 0.673 ± 0.023

— the supplement of paper PMC10724198
